Measurements published in IntAct's records for PubMed 23290633.

B1: Magnesium transporter NIPA4 (Homo sapiens), Q0D2K0 (parent)
chain: MELRVSNTSCENGSLLHLYCSSQEVLCQIVNDLSPEVPSNATFHSWQERIRQNYGFYIGLGLAFLSSFLIGSSVILKKKGLLRLVATGATRAVDGGFGYLKDAMWWAGFLTMAAGEVANFGAYAFAPATVVTPLGALSVLISAILSSYFLRESLNLLGKLGCVICVAGSTVMVIHAPEEEKVTTIMEMASKMKDTGFIVFAVLLLVSCLILIFVIAPRYGQRNILIYIIICSVIGAFSVAAVKGLGITIKNFFQGLPVVRHPLPYILSLILALSLSTQVNFLNRALDIFNTSLVFPIYYVFFTTVVVTSSIILFKEWYSMSAVDIAGTLSGFVTIILGVFMLHAFKDLDISCASLPHMHKNPPPSPAPEPTVIRLEDKNVLVDNIELASTSSPEEKPKVFIIHS

Variants of: B1
Conditions: with SLC27A4, Q6P1M0
SLC27A4, Q6P1M0, sequence (Q6P1M0 whole entry, looked up): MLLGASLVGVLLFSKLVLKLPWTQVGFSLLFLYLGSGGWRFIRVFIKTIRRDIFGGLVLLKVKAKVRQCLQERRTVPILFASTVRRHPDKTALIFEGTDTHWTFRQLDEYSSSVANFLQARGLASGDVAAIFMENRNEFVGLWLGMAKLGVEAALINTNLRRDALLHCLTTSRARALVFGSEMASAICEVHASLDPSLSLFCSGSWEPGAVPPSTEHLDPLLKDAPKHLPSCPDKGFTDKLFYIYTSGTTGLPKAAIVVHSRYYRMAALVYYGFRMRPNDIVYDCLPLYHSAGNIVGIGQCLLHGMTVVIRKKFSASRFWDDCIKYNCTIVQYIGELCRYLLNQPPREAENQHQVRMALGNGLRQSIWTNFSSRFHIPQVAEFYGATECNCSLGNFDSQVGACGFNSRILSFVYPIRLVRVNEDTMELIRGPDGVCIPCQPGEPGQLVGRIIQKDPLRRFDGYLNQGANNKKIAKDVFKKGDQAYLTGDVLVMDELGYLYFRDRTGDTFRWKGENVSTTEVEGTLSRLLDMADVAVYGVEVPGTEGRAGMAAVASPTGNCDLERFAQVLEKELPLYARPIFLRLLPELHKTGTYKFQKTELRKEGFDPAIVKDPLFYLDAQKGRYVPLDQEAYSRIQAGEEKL

Row | Variant | effect of a mutation on the interaction
1 | MELRVSNTSCENGSLLHLYCSSQEVLCQIVNDLSPEVPSNATFHSWQERIRQNYGFYIGLGLAFLSSFLIGSSVILKKKGLLRLVATGATRAVDGGFGYLKDAMWWAGFLTMADGEVANFGAYAFAPATVVTPLGALSVLISAILSSYFLRESLNLLGKLGCVICVAGSTVMVIHAPEEEKVTTIMEMASKMKDTGFIVFAVLLLVSCLILIFVIAPRYGQRNILIYIIICSVIGAFSVAAVKGLGITIKNFFQGLPVVRHPLPYILSLILALSLSTQVNFLNRALDIFNTSLVFPIYYVFFTTVVVTSSIILFKEWYSMSAVDIAGTLSGFVTIILGVFMLHAFKDLDISCASLPHMHKNPPPSPAPEPTVIRLEDKNVLVDNIELASTSSPEEKPKVFIIHS [A114D] | decreasing interaction
